Kd data for one molecule are collected here from patent US20160002322A1 (INDUSTRY ACADEMIC COOPERATION FOUNDATION HALLYM UNIVERSITY, published 2016).

Assay [1] has as its target mouse TM4SF5 peptide (mTM4SF5) (mouse). Nature of the assay: SPR, Biacore T100, 25 C; biotinylated peptide captured on streptavidin-coated CM4 chip, antibody injected at 2-32 nM. On the procedure:
(§1) Affinity of anti-hTM4SF5 monoclonal antibody binding to human TM4SF5 peptide (hTM4SF5) and mouse TM4SF5 peptide (mTM4SF5) was measured using Biacore T100 (Biacore) at 25° C. Biotinylated peptides were captured on individual flow cell surface of a CM4 sensor chip coated with streptoavidin. Biotin served as a negative control. Anti-TM4SF5 monoclonal antibody at concentrations ranging from 2 to 32 nM was injected at a flow rate of […]. Data were evaluated using Biacore Bia evaluation software (version 3.0).

Assay [2] deals with T1, hTM4SF5 peptide (138-NRTLWDRCEAPPRV-151) (human, also: biotinylated for SPR capture (position not given here)).
T1 construct: also called human TM4SF5 peptide
T1 peptide: NRTLWDRCEAPPRV
Nature of the assay: SPR (Biacore T100, 25 C), biotinylated hTM4SF5 peptide captured on a streptavidin-coated CM4 chip, antibody injected at 2 to 32 nM. On the procedure:
as §1
A general note: In SPR one partner is held on a chip, and binding of the other changes the refractive index at the surface.

Assay [3] addresses mouse TM4SF5 peptide (mTM4SF5) (mouse). As to the kind of experiment: SPR (Biacore T100, 25 C), biotinylated mTM4SF5 peptide captured on a streptavidin-coated CM4 chip, antibody injected at 2 to 32 nM. On the procedure:
as §1

Assay [4] deals with T1, hTM4SF5 peptide (138-NRTLWDRCEAPPRV-151). Nature of the assay: SPR, Biacore T100, 25 C; biotinylated peptide captured on streptavidin-coated CM4 chip, antibody injected at 2-32 nM; human TM4SF5 (not mouse); peptide on the chip per methods. As to the method: as §1

No end group written: not given here.

B1: anti-TM4SF5 monoclonal antibody 2D4-18 (antibody, V domains shown)
VH: GDLVKPGGSLKLSCAASGFTFSSYGMSWVRQTPDKRLEWVATISSGGGYTYYPDSVKGRFTISRDNAKNTLYLQMRSLKSEDTAMYYCARHEGFTTYYFDYWGQGTTLTVSS
VL: LSLPVSLGDQASISCRSSQSILHSSGNTYLEWYLQKPGQSPKLLIYKVSNRFSGVPDRFSGSGSGTDFTLKISRVEAEDLGVYYCFQGSHVPFTFGSGTKLEIKR
notes: DyLight 750-labelled in the biodistribution experiment; also called TM4SF5-targeted mAb (2D4-18); anti-hTM4SF5 monoclonal antibody
In the case of B1, the Kd – broadly, the constant that tells how readily two partners part at equilibrium – is ~2 nM in assay [1], 2.74 nM in assay [2], 1.87 nM in assay [3] and ~2 nM in assay [4].
